Results as given in ChEMBL document CHEMBL1128006, “Solid phase synthesis of trypanothione disulfide” (Bioorg Med Chem Lett, 1994).

Compound: NC(CCC(=O)NC1CSSCC(NC(=O)CCC(N)C(=O)O)C(=O)NCC(=O)NCCCNCCCCNC(=O)CNC1=O)C(=O)O
Assay: Inhibitory activity against recombinant Trypanothione reductase from Trypanosoma cruzi

B1: Trypanothione reductase (Trypanosoma cruzi), P28593 (protein)
chain: MMSKIFDLVVIGAGSGGLEAAWNAATLYKKRVAVIDVQMVHGPPFFSALGGTCVNVGCVPKKLMVTGAQYMEHLRESAGFGWEFDRTTLRAEWKKLIAVKDEAVLNINKSYEEMFRDTEGLEFFLGWGSLESKNVVNVRESADPASAVKERLETENILLASGSWPHMPNIPGIEHCISSNEAFYLPEPPRRVLTVGGGFISVEFAGIFNAYKPKDGQVTLCYRGEMILRGFDHTLREELTKQLTANGIQILTKENPAKVELNADGSKSVTFESGKKMDFDLVMMAIGRSPRTKDLQLQNAGVMIKNGGVQVDEYSRTNVSNIYAIGDVTNRVMLTPVAINEAAALVDTVFGTNPRKTDHTRVASAVFSIPPIGTCGLIEEVASKRYEVVAVYLSSFTPLMHNISGSKYKTFVAKIITNHSDGTVLGVHLLGDNAPEIIQGVGICLKLNAKISDFYNTIGVHPTSAEELCSMRTPSYYYVKGEKMEKPSEASL
Km: 50 µM
